Data on 8 sequences can be found in the supplement of paper PMC10065799, “High-throughput profiling of sequence recognition by tyrosine kinases and SH2 domains using bacterial peptide display” (eLife, 2023).

One data set deals with AncSZ. Nature of the data set: phosphorylation enrichment, bacterial display (enrichment ratio); higher = better substrate or ligand; peptides without Tyr show the background.
The target of the next data set is EPHB1 (UniProt P54762). The data set is described as above.
EPHB1, sequence (P54762 whole entry, looked up): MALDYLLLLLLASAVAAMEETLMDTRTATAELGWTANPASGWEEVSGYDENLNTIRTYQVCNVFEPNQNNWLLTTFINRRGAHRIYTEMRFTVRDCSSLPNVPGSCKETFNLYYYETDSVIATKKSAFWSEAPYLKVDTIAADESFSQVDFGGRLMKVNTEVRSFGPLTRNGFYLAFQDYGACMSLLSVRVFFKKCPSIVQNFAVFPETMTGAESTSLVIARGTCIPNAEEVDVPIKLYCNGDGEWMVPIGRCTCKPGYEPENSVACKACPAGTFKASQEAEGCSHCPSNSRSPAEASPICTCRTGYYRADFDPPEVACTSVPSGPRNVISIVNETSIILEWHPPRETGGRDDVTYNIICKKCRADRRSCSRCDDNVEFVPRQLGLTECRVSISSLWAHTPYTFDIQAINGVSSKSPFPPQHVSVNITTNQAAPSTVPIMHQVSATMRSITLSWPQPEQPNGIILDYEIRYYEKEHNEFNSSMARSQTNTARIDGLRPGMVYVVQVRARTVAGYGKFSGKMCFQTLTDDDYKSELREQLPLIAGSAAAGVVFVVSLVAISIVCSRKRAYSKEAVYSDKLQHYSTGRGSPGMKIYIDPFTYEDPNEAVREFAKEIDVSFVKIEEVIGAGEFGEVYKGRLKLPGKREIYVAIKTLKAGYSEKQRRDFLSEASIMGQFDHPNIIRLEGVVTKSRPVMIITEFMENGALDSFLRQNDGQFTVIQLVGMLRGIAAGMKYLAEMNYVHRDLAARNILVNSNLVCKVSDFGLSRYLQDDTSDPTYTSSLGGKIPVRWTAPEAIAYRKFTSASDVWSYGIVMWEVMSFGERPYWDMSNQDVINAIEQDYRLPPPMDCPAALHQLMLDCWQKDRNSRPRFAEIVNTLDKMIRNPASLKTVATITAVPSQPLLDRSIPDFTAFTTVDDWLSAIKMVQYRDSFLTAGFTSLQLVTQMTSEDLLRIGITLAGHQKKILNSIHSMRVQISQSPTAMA
For a further data set, the target named is EPHB2 (UniProt P29323). The description is as above.
EPHB2, sequence (P29323 whole entry, looked up): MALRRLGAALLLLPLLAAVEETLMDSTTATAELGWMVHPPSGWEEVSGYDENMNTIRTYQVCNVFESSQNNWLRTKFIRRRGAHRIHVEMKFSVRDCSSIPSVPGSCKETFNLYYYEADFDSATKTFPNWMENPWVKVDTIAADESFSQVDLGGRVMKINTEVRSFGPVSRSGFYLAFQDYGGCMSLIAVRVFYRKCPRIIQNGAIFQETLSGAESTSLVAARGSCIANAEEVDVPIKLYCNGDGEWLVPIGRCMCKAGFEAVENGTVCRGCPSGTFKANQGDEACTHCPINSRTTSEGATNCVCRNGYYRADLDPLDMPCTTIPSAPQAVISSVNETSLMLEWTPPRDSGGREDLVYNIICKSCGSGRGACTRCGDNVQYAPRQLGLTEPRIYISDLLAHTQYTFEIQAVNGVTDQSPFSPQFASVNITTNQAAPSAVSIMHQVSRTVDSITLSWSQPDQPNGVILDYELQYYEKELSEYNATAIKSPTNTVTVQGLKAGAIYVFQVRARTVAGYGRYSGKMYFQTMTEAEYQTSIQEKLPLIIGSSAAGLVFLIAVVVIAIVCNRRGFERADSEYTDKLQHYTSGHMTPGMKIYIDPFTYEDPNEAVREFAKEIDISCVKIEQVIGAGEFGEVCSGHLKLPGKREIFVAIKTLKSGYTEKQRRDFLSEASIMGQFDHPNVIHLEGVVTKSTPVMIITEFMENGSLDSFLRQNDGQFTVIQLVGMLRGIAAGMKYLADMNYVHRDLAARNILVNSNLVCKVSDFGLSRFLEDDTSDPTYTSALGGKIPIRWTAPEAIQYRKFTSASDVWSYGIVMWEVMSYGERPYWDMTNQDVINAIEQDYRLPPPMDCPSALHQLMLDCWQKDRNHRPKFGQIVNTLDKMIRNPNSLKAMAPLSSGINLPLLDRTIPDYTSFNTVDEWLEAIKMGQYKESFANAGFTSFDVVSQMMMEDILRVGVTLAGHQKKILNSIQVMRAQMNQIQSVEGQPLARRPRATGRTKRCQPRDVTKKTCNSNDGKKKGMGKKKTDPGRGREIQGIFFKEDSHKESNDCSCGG
A further data set addresses FGFR1 (UniProt P11362). Described as above.
For another data set, the target named is FGFR3 (UniProt P22607). Described as above.
FGFR3, sequence (P22607 whole entry, looked up): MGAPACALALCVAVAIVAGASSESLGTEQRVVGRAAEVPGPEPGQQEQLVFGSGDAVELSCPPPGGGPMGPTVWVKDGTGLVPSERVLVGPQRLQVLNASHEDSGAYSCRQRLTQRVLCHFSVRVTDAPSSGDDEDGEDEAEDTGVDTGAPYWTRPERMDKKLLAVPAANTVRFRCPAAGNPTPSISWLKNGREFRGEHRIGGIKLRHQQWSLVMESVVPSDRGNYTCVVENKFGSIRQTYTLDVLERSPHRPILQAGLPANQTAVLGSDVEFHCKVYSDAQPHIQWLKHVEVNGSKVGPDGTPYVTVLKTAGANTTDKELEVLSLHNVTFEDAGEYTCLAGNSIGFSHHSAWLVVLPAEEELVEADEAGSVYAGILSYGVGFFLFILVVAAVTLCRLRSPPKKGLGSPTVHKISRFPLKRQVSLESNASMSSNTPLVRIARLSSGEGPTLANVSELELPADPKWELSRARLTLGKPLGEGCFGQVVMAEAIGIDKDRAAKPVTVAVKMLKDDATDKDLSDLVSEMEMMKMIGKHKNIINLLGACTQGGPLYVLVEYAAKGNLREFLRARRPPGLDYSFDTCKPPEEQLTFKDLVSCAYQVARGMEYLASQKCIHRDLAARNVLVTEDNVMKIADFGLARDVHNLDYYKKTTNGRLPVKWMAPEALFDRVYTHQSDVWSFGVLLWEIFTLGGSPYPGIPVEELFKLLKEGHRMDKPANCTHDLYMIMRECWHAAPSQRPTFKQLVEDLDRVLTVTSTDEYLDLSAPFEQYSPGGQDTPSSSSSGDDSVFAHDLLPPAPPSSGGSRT
Another data set concerns Fer (mouse). The data set is described as above.
A further data set concerns the target Fes (UniProt P07332). The data set is described as above.
A further data set addresses Fyn (UniProt P06241). The description is as above.
A further data set has as its target Hck (UniProt P08631). The description is as above.
A further data set deals with Jak2 (UniProt O60674). The description is as above.
Jak2, sequence (O60674 whole entry, looked up): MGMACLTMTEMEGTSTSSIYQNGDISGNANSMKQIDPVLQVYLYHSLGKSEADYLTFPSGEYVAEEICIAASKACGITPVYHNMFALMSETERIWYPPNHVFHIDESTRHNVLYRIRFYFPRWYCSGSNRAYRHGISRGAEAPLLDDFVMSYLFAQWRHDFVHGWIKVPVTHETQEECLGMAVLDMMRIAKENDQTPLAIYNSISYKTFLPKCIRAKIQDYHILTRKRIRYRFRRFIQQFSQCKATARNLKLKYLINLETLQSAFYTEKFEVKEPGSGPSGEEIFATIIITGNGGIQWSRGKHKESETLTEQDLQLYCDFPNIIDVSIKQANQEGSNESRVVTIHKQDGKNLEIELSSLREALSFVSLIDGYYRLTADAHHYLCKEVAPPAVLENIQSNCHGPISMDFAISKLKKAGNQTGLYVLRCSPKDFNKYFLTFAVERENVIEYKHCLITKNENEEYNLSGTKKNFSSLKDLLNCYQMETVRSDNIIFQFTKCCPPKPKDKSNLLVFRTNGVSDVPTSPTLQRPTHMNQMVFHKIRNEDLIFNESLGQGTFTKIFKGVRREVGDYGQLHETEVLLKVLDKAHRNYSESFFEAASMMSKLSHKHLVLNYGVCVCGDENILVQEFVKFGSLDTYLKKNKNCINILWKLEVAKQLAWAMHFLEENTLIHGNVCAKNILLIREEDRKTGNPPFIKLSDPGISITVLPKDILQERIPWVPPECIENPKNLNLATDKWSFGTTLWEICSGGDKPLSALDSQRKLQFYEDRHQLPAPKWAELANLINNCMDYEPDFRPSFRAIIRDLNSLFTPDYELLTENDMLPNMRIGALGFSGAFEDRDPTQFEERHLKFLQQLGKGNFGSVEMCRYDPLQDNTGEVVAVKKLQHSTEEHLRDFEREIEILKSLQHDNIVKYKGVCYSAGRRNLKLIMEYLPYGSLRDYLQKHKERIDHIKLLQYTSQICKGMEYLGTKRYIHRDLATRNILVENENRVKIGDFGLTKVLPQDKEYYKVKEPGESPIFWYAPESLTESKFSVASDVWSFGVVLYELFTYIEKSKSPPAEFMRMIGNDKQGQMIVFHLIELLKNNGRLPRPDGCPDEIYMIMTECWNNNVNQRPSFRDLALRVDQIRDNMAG
The next data set has as its target MERTK (UniProt Q12866). The description is as above.
In the next data set the test system is c-Abl (mouse). Described as above.
In the next data set the test system is c-Src. The data set is described as above.
The next data set concerns the target Grb2 SH2 (UniProt P62993). Nature of the data set: SH2 binding enrichment of the phosphorylated peptide, bacterial display (enrichment ratio); higher = better substrate or ligand; peptides without Tyr show the background.
A further data set has as its target SHP2-C SH2. The description is as above.
The next data set addresses c-Src SH2. Described as above.
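For SH2 binding enrichment of the phosphorylated peptide, bacterial display in this document: peptide library displayed on the E. coli surface as eCPX fusions, selected cells deep-sequenced, score is each peptide's frequency after selection divided by its frequency in the input.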
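For phosphorylation enrichment, bacterial display in this document: 11-residue human phosphosite peptides and single-mutation variants displayed on the E. coli surface, counted by deep sequencing, each peptide's frequency after selection divided by its frequency in the unselected input library; frequency after pTyr selection over input frequency; kinase dosed for 20-30% of maximal phosphorylation in three min.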

MERTK, sequence (Q12866 whole entry, looked up): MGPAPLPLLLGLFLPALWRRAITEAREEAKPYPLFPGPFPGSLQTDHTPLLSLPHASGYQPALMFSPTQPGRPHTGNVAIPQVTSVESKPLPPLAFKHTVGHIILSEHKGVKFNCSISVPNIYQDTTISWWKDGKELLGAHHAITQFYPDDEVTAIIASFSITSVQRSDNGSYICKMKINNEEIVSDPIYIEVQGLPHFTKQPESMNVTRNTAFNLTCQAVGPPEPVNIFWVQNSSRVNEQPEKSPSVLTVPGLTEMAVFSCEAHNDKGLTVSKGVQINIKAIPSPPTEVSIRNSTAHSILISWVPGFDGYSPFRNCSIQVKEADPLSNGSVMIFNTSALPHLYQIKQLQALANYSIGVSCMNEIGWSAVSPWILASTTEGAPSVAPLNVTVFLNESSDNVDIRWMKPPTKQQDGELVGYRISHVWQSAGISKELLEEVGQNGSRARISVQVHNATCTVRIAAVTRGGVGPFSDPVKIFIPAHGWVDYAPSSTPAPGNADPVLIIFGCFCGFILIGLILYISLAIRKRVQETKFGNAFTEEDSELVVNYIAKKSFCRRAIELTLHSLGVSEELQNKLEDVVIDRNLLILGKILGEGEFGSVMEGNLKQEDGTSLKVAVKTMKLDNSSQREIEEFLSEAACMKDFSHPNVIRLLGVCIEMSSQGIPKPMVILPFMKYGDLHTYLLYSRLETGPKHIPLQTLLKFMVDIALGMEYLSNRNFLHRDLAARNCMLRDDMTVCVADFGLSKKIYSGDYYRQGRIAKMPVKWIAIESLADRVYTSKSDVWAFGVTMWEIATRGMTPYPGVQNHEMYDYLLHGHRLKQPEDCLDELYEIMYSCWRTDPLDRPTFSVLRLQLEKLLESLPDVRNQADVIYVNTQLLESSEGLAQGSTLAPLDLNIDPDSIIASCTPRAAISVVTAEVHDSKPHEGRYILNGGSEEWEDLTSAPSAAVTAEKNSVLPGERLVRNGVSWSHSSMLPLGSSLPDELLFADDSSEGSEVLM

Turning to VIKDKYPKARF [APTX_Y209_YF], the phosphorylation enrichment came to 0.455 in the data set with AncSZ; 0.339 with EPHB1; 0.297 with EPHB2; 0.425 with FGFR1; 0.504 with FGFR3; 0.288 in the data set on Fer (mouse). For the same sequence, the phosphorylation enrichment was found to be 0.672 in the data set with Fes; 0.294 with Fyn; 0.332 with Hck; 0.772 in the data set with Jak2; 0.374 with MERTK; 0.646 in the data set with c-Abl (mouse). Besides, the phosphorylation enrichment in the data set on c-Src was determined as 0.408. For the same sequence, the SH2 binding enrichment came out at 1.15 with Grb2 SH2, 1.25 with SHP2-C SH2 and 1.04 with c-Src SH2.

Regarding VITDFYVDMKF [MPP4_Y567_YF], the phosphorylation enrichment in the data set on AncSZ was 1.23; with EPHB1, 1.31; in the data set with EPHB2, 0.824; with FGFR1, 1.42; with FGFR3, 1.36; in the data set on Fer (mouse) it was 0.925. The phosphorylation enrichment with Fes amounted to 1.32; with Fyn, 0.457; with Hck, 0.624; with Jak2 it was 1.27; in the data set with MERTK it was 0.52; in the data set with c-Abl (mouse), 0.727. Besides, in the data set on c-Src, the phosphorylation enrichment came to 0.503. The SH2 binding enrichment is 0.864 with Grb2 SH2, 0.577 with SHP2-C SH2 and 0.607 with c-Src SH2.

Turning to VLALWYFFLTH [ZDHHC23_Y127_YF], the phosphorylation enrichment worked out at 1.42 with AncSZ; 0.963 in the data set with EPHB1; 0.676 in the data set with EPHB2; 2.08 with FGFR1; 1.76 in the data set with FGFR3; 0.644 with Fer (mouse). Moreover, the phosphorylation enrichment turned out to be 1.76 in the data set with Fes; 0.614 with Fyn; 0.682 with Hck; 2.27 with Jak2; 0.882 with MERTK; 1.01 in the data set with c-Abl (mouse). Also, the phosphorylation enrichment in the data set with c-Src was 0.602. In addition, the SH2 binding enrichment in the data set with Grb2 SH2 worked out at 1.28; with SHP2-C SH2, 1.16; with c-Src SH2 it was 1.06.

In the case of VLALWYFFLTN [ZDHHC23_Y127_H132N_YF], the phosphorylation enrichment with AncSZ stood at 1.16; in the data set with EPHB1, 0.746; with EPHB2 it was 0.63; with FGFR1 it was 2.05; in the data set with FGFR3 it was 1.94; in the data set on Fer (mouse), 0.595. Moreover, the phosphorylation enrichment was 1.68 with Fes; 0.535 in the data set with Fyn; 0.62 with Hck; 1.91 in the data set with Jak2; 0.963 with MERTK; 0.904 with c-Abl (mouse). Besides, in the data set on c-Src, the phosphorylation enrichment stood at 0.654. Besides, the SH2 binding enrichment in the data set with Grb2 SH2 was 0.936; in the data set with SHP2-C SH2, 1.03; in the data set with c-Src SH2, 0.985.

Regarding VLNDAYENLTR [SYNE2_Y3255], the phosphorylation enrichment was determined as 1.08 with AncSZ; 0.531 with EPHB1; 0.759 with EPHB2; 0.559 with FGFR1; 0.761 with FGFR3; 0.581 with Fer (mouse). The phosphorylation enrichment in the data set with Fes turned out to be 0.859; with Fyn, 0.524; with Hck, 0.521; in the data set with Jak2, 0.665; with MERTK, 0.379; with c-Abl (mouse) it was 0.605. Further, the phosphorylation enrichment with c-Src was found to be 0.391. In addition, the SH2 binding enrichment came to 3.35 with Grb2 SH2, 0.917 in the data set with SHP2-C SH2 and 2.25 with c-Src SH2.

With VLPIDYFFPPQ [AR_Y552_YF], the phosphorylation enrichment with AncSZ worked out at 2.91; in the data set with EPHB1, 0.708; with EPHB2 it was 0.914; in the data set with FGFR1, 11.5; in the data set with FGFR3, 9.06; in the data set on Fer (mouse), 0.35. In addition, the phosphorylation enrichment stood at 0.82 in the data set with Fes; 0.574 in the data set with Fyn; 0.604 in the data set with Hck; 0.969 in the data set with Jak2; 0.459 in the data set with MERTK; 0.502 in the data set on c-Abl (mouse). For the same sequence, in the data set on c-Src, the phosphorylation enrichment worked out at 0.522. For the same sequence, the SH2 binding enrichment with Grb2 SH2 stood at 0.986; in the data set with SHP2-C SH2, 0.882; with c-Src SH2, 0.696.

Consider VMLENYSNLVS [ZFP69_Y109], for which the phosphorylation enrichment in the data set with AncSZ is 0.819; in the data set with EPHB1 it was 1.49; with EPHB2, 1.24; with FGFR1, 0.654; in the data set with FGFR3 it was 0.608; in the data set on Fer (mouse) it was 0.556. The phosphorylation enrichment with Fes turned out to be 0.781; with Fyn, 0.563; with Hck it was 0.49; in the data set with Jak2 it was 0.49; in the data set with MERTK it was 0.375; in the data set on c-Abl (mouse), 0.39. The phosphorylation enrichment in the data set on c-Src was found to be 0.363. In addition, the values for the SH2 binding enrichment with Grb2 SH2, with SHP2-C SH2 and with c-Src SH2 were 0.851, 0.555 and 0.669, respectively.

For VNKIYYPDFIV [LIG3_Y768], the phosphorylation enrichment in the data set with AncSZ was determined as 1.23; in the data set with EPHB1, 0.621; with EPHB2, 0.516; in the data set with FGFR1, 8.82; with FGFR3, 7.46; with Fer (mouse) it was 0.494. Further, the phosphorylation enrichment came to 0.918 with Fes; 1.09 in the data set with Fyn; 1.25 with Hck; 0.666 with Jak2; 2.72 with MERTK; 0.596 in the data set on c-Abl (mouse). In addition, the phosphorylation enrichment with c-Src is 1.48. For the same sequence, the SH2 binding enrichment is 1.07 in the data set with Grb2 SH2, 0.697 in the data set with SHP2-C SH2 and 0.675 with c-Src SH2.
